Data published in publication PMC3605642 (The Journal of Biological Chemistry, 2013).
Like-named read-outs stand apart in the source and are kept apart here. One block for each molecule: values may come before it.

B1: talin R3 rod domain (residues 787–911) (domain or fragment, mouse, UniProt P26039 787-911, looked up)
chain: AHATGAGPAGRYDQATDTILTVTENIFSSMGDAGEMVRQARILAQATSDLVNAIKADAEGESDLENSRKLLSAAKILADATAKMVEAAKGAAAHPDSEEQQQRLREAAEGLRMATNAAAQNAIKK
B2: talin R3 IVVI mutant (T809I/T833V/T867V/T901I) (domain or fragment, mouse, UniProt P26039 787-911, looked up)
chain: AHATGAGPAGRYDQATDTILTVIENIFSSMGDAGEMVRQARILAQAVSDLVNAIKADAEGESDLENSRKLLSAAKILADAVAKMVEAAKGAAAHPDSEEQQQRLREAAEGLRMAINAAAQNAIKK

Key:
[1] = target: vinculin domain 1 (Vd1; residues 1–258) (chicken) (UniProt P12003); experiment: SEC-MALS
[2] = target: B2; experiment: NMR titration
[3] = target: B1; experiment: NMR titration
[4] = target: B1; experiment: ITC
[5] = target: T1, vinculin domain 1 (Vd1; residues 1–258) (chicken, UniProt P12003 1-258); experiment: ITC
T1 sequence (looked up): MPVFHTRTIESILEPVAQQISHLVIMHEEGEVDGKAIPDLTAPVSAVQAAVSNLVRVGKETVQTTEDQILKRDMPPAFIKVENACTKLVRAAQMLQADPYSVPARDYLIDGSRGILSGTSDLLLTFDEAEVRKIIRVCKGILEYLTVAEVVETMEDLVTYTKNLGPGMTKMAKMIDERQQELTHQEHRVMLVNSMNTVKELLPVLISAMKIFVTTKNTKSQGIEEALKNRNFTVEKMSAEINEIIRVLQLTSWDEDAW

[6] = target: T1, vinculin domain 1 (Vd1; residues 1–258); experiment: SEC
[7] = target: T1, vinculin domain 1 (Vd1; residues 1–258); experiment: SEC; remark: listed apart in the source
[8] = target: talin R2R3 double domain fragment (mouse); experiment: SEC-MALS
[9] = target: talin R2R3 double domain fragment (mouse); experiment: ITC

Chain of talin R2R3 double domain fragment (mouse) (P26039 whole entry, the tested form may be a part): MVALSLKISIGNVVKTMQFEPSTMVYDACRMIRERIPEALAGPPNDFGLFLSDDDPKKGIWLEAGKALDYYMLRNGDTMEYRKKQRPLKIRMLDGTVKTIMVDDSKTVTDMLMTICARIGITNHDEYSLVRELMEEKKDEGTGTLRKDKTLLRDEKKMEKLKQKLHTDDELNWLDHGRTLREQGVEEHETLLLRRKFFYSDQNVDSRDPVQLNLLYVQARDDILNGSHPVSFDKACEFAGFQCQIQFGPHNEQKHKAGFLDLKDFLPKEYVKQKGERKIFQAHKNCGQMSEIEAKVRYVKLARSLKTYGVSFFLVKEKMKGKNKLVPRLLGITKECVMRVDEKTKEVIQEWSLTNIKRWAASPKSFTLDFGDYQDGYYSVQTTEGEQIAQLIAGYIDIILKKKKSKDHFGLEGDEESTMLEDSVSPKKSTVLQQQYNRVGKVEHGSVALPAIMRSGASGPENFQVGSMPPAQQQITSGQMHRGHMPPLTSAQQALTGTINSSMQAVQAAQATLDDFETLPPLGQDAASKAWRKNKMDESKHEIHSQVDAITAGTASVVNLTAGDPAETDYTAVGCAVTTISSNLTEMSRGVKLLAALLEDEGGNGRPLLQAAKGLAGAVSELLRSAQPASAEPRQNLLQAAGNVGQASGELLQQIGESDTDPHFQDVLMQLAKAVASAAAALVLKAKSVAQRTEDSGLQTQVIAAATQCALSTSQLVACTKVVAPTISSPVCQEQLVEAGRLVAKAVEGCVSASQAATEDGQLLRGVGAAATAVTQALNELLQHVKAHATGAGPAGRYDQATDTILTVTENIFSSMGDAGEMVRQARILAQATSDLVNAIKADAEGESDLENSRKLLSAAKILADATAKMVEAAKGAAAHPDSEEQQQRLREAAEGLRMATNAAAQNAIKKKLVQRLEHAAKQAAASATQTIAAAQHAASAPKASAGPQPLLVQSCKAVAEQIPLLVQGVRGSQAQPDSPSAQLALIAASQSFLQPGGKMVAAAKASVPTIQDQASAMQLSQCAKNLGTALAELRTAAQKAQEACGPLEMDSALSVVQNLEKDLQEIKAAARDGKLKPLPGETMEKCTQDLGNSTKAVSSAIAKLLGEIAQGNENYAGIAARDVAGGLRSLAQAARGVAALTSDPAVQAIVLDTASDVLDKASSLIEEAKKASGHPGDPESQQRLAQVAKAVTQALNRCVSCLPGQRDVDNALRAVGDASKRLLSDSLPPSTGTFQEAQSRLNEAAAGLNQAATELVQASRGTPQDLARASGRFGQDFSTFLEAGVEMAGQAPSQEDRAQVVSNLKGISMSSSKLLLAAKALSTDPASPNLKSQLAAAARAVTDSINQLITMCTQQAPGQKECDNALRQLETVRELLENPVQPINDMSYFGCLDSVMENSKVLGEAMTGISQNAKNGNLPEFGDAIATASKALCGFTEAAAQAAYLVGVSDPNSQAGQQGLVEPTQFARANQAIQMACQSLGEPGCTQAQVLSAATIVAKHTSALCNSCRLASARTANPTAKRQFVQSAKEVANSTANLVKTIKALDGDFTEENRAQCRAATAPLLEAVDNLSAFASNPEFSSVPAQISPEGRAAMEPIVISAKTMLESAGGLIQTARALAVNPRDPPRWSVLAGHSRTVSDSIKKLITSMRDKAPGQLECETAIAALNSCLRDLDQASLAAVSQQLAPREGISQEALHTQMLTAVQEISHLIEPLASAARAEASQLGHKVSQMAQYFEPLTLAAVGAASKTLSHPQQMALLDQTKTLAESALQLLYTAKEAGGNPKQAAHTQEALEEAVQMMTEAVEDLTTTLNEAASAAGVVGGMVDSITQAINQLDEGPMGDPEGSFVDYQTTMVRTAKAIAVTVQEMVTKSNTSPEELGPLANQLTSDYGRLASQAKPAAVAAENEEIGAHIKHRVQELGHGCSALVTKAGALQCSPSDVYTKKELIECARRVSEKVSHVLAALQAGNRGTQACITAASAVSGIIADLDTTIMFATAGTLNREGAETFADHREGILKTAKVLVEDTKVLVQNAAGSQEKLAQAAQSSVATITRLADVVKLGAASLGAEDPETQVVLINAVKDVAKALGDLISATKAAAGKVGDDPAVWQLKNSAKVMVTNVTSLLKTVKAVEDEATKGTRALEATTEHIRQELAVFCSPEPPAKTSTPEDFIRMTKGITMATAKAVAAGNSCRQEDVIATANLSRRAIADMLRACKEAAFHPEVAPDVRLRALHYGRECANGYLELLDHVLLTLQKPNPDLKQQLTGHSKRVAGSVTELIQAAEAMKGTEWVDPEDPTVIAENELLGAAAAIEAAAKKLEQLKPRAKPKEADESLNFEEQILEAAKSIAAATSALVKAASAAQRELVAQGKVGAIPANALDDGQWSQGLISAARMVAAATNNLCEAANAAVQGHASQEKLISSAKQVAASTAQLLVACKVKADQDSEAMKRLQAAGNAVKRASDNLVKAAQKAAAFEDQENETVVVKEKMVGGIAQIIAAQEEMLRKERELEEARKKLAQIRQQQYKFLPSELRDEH

Molecule: MGESNEDIDQMFSTLLGEMDLLTQSLGVDTLP (peptide, UniProt Q8R5A3 1-32, looked up) [RIAM(1–32) (TBS1)]
- Kd [4]: 36000 nM
- dH [5]: -1.5 kcal

Molecule: B1
- binding result [6]: binds

Molecule: B2
- binding result [7]: binds

B3: RIAM(1–127) (TBS1-TBS2) (domain or fragment)
chain: MGESNEDIDQMFSTLLGEMDLLTQSLGVDTLPPPDPNPPREEFNYTVGFKDLNESLNALEDQDLDALMADLVADISEAEQRTIQAQKESSQNQDRFALLRASDGQGTASGGYGASAAAIDVSHHEEA
- stoichiometry N [8]: 1
- Kd [9]: 2000 nM

Next, values leading:

- stoichiometry N [1]: 4 Vd1 per R2R3
Molecule: talin R2R3 double domain fragment (domain or fragment)

- binding result [2]: binds
- binding result [3]: binds
Molecule: EDIDQMFSTLLGEMDLLTQSLGVDT [RIAM wild type peptide (6-30), TBS1]

- Kd [5]: 800 nM
- dH [5]: -5.9 kcal
Molecule: GEMVRQARILAQATSDLVNAIKADA (peptide, UniProt P26039 820-844, looked up) [talin VBS (residues 820–844) in talin R3]
